Test results reported in the supplement of paper PMC7125110.
± gives the standard error. Fewer inactive variants are shown than the library holds.

B1: glmS ribozyme (parent)
chain: AUAAAAGCGCCAGAACUACAGAAAUGUAGUUGACGAGGAGGAGGUUUAUCGAAUUUUCGGCGGAUGCCUCCAAA

Experiments:
Details in all cases: with glucosamine-6-phosphate
glucosamine-6-phosphate [1] = variants of: B1; test: self-cleavage kobs at 640 uM GlcN6P; higher = faster cleavage; RNA array
Summary of the method: (§1)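 Glucosamine-6-phosphate (40 μM to 10 mM) in HEPES/KCl/Mg(OAc)2 buffer was flowed over sequenced MiSeq chips, and tiles were imaged over ~14 h. Barcoded ribozyme variants there had been transcribed in situ by E. coli RNA polymerase and were tracked through a hybridised Cy3 probe at 37 °C. One- or two-exponential decay fits to per-tile medians, normalised to baseline and to non-cleaving reference variants, gave kobs. kcat and KM came from weighted Michaelis–Menten fits across concentrations.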

glucosamine-6-phosphate [2] = variants of: B1; test: self-cleavage kobs at 2500 uM GlcN6P; higher = faster cleavage; RNA array
Summary of the method: as §1

glucosamine-6-phosphate [3] = variants of: B1; test: self-cleavage kobs at 10000 uM GlcN6P; higher = faster cleavage; RNA array
Summary of the method: as §1

Variant | self-cleavage kobs at 640 uM GlcN6P (glucosamine-6-phosphate [1]) [s⁻¹] | self-cleavage kobs at 2500 uM GlcN6P (glucosamine-6-phosphate [2]) [s⁻¹] | self-cleavage kobs at 10000 uM GlcN6P (glucosamine-6-phosphate [3]) [s⁻¹]
AUAAAAGCGCCAGAACUACAGAAAUGUAGUUGACGAGGAGCAGGUUUAUUGAAUUUUCUGCGGAUGCCUCCAAA [G41C C50U G59U] | < 1e-05 | – | –
AUAAAAGCGCCAGAACUACAGAAAUGUAGUUGACGAGGAGAAGGUUUAUCGAAUUUUCGGCGUAGGCCUUCAAA [G41A G63U U65G C70U] | < 1e-05 | < 1e-05 | –
AUAAAAGCGCCAGAACUACAGAAAUGUAGUUGACGAGGAGAAGGUUUAUCAAAUUUUCGGCGGAUGCGUCCAAA [G41A G51A C68G] | < 1e-05 | – | –
AUAAAAGCGCCAGAACUACAGAAAUGUAGUUGACGAGGAGAAGGUUUAUCGAAUUUUAGGCGGAUGCCACCAAA [G41A C58A U69A] | < 1e-05 | < 1e-05 | –
AUAAAAGCGCCAGAACUACAGAAAUGUAGUUGACGAGGAGAAGGUUAAUCGCAUUUUCGGCGGAUGCCUCCAAA [G41A U47A A52C] | < 1e-05 | – | –
AUAAAAGCGCCAGAACUACAGAAAUGUAGUUGACGAGGAGCAGGUUUAUCGAAUUUUCGGCGGCUGACUCCAAA [G41C A64C C67A] | < 1e-05 | – | –
AUAAAAGCGCCAGAACUACAGAAAUGUAGUUGACGAGGACGAGGUUUAUCGAAUUUUCGGCGGAUGGCUGCAAA [G40C C67G C70G] | < 1e-05 | – | < 1e-05
AUAAAAGCGCCAGAACUACAGAAAUGUAGUUGACGAGGAAGAGGUUUAUCAAAUAUUCGGCGGAUGCCUCCAAA [G40A G51A U55A] | < 1e-05 | – | –
AUAAAAGCGCCAGAACUACAGAAAUGUAGUUGACGAGGAGUAGGUUUAUCGAAUUUUGGGUGGUUGCCUCUAAA [G41U C58G C61U A64U C71U] | < 1e-05 | – | –
AUAAAAGCGCCAGAACUACAGAAAUGUAGUUGACGAGGAGGCUGUUUAUCGAAUUUUCGGCGGAUGCCUUCAAA [A42C G43U C70U] | < 1e-05 | < 1e-05 | –
AUAAAAGCGCCAGAACUACAGAAAUGUAGUUGACGAGGAGAAGUUUUAUCGAAUUUUCGGCGGAUACCUCCAAA [G41A G44U G66A] | < 1e-05 | < 1e-05 | –
AUAAAAGCGCCAGAACUACAGAAAUGUAGUUGACGAGGAGGCGGUUUUUCGAAUUUUCGGCGGAUGCGUCCAAA [A42C A48U C68G] | < 1e-05 | – | –
AUAAAAGCGCCAGAACUACAGAAAUGUAGUUGACGAGGAUAUGGUUUAUCGAAGUUUCGUCGGAUGCCUCUAAA [G40U G41A A42U U54G G60U C71U] | < 1e-05 | < 1e-05 | < 1e-05
AUAAAAGCGCCAGAACUACAGAAAUGUAGUUGACGAGGACGAGGUUUAUCGAAUUUUCGGCGGAGGCCUCCAAA [G40C U65G] | 9.16e-05 ± 3.6e-05 | 0.00036 ± 0.00012 | 0.000854 ± 0.00025
AUAAAAGCGCCAGAACUACAGAAAUGUAGUUGACGAGGAGUAGGUUUAUCGAAUUUUCUGCGUAUGCCUCCAAA [G41U G59U G63U] | < 1e-05 | – | –
AUAAAAGCGCCAGAACUACAGAAAUGUAGUUGACGAGGAGCAGGUUUAUCUAAUUUUCGGCGGCUGCCUCCAAA [G41C G51U A64C] | < 1e-05 | < 1e-05 | –
AUAAAAGCGCCAGAACUACAGAAAUGUAGUUGACGAGGAGGCGGUUUAUCGUAUUUUCGGCGGGUGCCUCCAAA [A42C A52U A64G] | < 1e-05 | < 1e-05 | –
AUAAAAGCGCCAGAACUACAGAAAUGUAGUUGACGAGGAGGCGUUUUAUCGAAUUUUCGGCGGGUGCGUCCAAA [A42C G44U A64G C68G] | < 1e-05 | – | –
AUAAAAGCGCCAGAACUACAGAAAUGUAGUUGACGAGGAGAAGGUUUACCGAAUUUUCGUCGGAUGCCUCCAAA [G41A U49C G60U] | < 1e-05 | – | –
AUAAAAGCGCCAGAACUACAGAAAUGUAGUUGACGAGGAGGGGGUUUAUCGAAUUUUCGGCGGGUGCCUACAAA [A42G A64G C70A] | 4.59e-05 ± 2.2e-05 | 0.000247 ± 6.8e-05 | –
AUAAAAGCGCCAGAACUACAGAAAUGUAGUUGACGAGGAGGCGGUGUAACGAAUUUUCGGCGGAUGCCUCCAAA [A42C U46G U49A] | < 1e-05 | – | –

Variant | self-cleavage kobs at 640 uM GlcN6P (glucosamine-6-phosphate [1]) [s⁻¹] | self-cleavage kobs at 2500 uM GlcN6P (glucosamine-6-phosphate [2]) [s⁻¹] | self-cleavage kobs at 10000 uM GlcN6P (glucosamine-6-phosphate [3]) [s⁻¹]
AUAAAAGCGCCAGAACUACAGAAAUGUAGUUGACGAGGUGGAGGUUUAUCGAAUUAUCGGCGGAUGCCUCCUAA [A39U U56A A72U] | 0.000916 ± 0.00022 | 0.00356 ± 0.00049 | –
AUAAAAGCGCCAGAACUACAGAAAUGUAGUUGACGAGGAGAAGGUUUAUCGAAUCUUCGGCGGAUGCCUCCAAA [G41A U55C] | 1.88e-05 ± 8.5e-06 | 0.000105 ± 1.9e-05 | –
AUAAAAGCGCCAGAACUACAGAAAUGUAGUUGACGAGGAUGAGGUUUAUGGAAUUUUCGGCGGAUGCCUCCAAA [G40U C50G] | < 1e-05 | < 1e-05 | < 1e-05
AUAAAAGCGCCAGAACUACAGAAAUGUAGUUGACGAGGAUUAGGUUUAGCGAAUUUUCGGGGGAUGCCUCCAAA [G40U G41U U49G C61G] | < 1e-05 | < 1e-05 | –
AUAAAAGCGCCAGAACUACAGAAAUGUAGUUGACGAGGAUGAGUUUUAUCGAAUUUUCGGCUGAUGCCUCCAAA [G40U G44U G62U] | < 1e-05 | < 1e-05 | –
AUAAAAGCGCCAGAACUACAGAAAUGUAGUUGACGAGGACUAUGUUUAUCGAAUUUUCGGCGGAUGCCUCCAAA [G40C G41U G43U] | < 1e-05 | < 1e-05 | –
AUAAAAGCGCCAGAACUACAGAAAUGUAGUUGACGAGGACGAGGCUUGUCGAAUUUUCGGCGGAUGCCUCCAAA [G40C U45C A48G] | < 1e-05 | < 1e-05 | –
AUAAAAGCGCCAGAACUACAGAAAUGUAGUUGACGAGGAGGCGUUUUAUCGAAUUUUCGGCGGAUGCCUCCAAA [A42C G44U] | < 1e-05 | – | < 1e-05
AUAAAAGCGCCAGAACUACAGAAAUGUAGUUGACGAGGAGGCUGUUUAUCGAAUUAUCGGCGGAUUCCUCCAAA [A42C G43U U56A G66U] | < 1e-05 | – | –
AUAAAAGCGCCAGAACUACAGAAAUGUAGUUGACGAGGAUGAGGUGGAUCGAAUAUUCGGCGUAUGCCUCCAAA [G40U U46G U47G U55A G63U] | < 1e-05 | < 1e-05 | –
AUAAAAGCGCCAGAACUACAGAAAUGUAGUUGACGAGGAGUAGGAUUAUCCAAUUUUGGGCGGAUGCCUCCAAA [G41U U45A G51C C58G] | < 1e-05 | < 1e-05 | –
AUAAAAGCGCCAGAACUACAGAAAUGUAGUUGACGAGGAGGGGGUUUAUCGAAUUUUAGGCGGUUGCCUCCAAA [A42G C58A A64U] | < 1e-05 | < 1e-05 | –
AUAAAAGCGCCAGAACUACAGAAAUGUAGUUGACGAGGAAGGGGUUUAUCGAUUUUUCGGCGGAUGCCUCCAAA [G40A A42G A53U] | 0.000733 ± 0.00023 | 0.000522 ± 0.00021 | –
AUAAAAGCGCCAGAACUACAGAAAUGUAGUUGACGAGGAGUAGGUUUAUCGCAUUUUCGGCGGAUGCCUCAAAA [G41U A52C C71A] | < 1e-05 | < 1e-05 | –
AUAAAAGCGCCAGAACUACAGAAAUGUAGUUGACGAGGAGUAGGUUGAUCUAAUUUUCGGCGGAUGCCUCCAAA [G41U U47G G51U] | < 1e-05 | < 1e-05 | –
AUAAAAGCGCCAGAACUACAGAAAUGUAGUUGACGAGGAGGCGGUUUAUCGAAUUUUCGGCGGAGGCCGCCAAA [A42C U65G U69G] | 0.000819 ± 0.00019 | 0.00302 ± 0.00061 | 0.00402 ± 0.001
AUAAAAGCGCCAGAACUACAGAAAUGUAGUUGACGAGGAGGCGGUUUAUCGAAUUCUCGUCGGAUGCCUCCAAA [A42C U56C G60U] | < 1e-05 | – | –
AUAAAAGCGCCAGAACUACAGAAAUGUAGUUGACGAGGAAAUGGUUUAUCGAAUUUUCGGCGGAUGCGUCCAAA [G40A G41A A42U C68G] | < 1e-05 | < 1e-05 | –
AUAAAAGCGCCAGAACUACAGAAAUGUAGUUGACGAGGAUGAGGCUUAUCGAAUUUUCGGCGGAUGCCUCCAAA [G40U U45C] | 0.000101 ± 2.7e-05 | 0.000729 ± 0.00014 | 0.000329 ± 7e-05
AUAAAAGCGCCAGAACUACAGAAAUGUAGUUGACGAGGAAGGGGUUUAUCUAAUUUACGGCGGAUGCCCCCAAA [G40A A42G G51U U57A U69C] | < 1e-05 | – | –
AUAAAAGCGCCAGAACUACAGAAAUGUAGUUGACGAGGAGUAGGUUUUUCGAAUUUUCGGCGGCUGCCUCCAAA [G41U A48U A64C] | < 1e-05 | < 1e-05 | –
